Results: patent EP0787148B1

Target: REK7 (endogenous, on rat E16 cortical neurons) (rat)
Experiment: cell-based or functional assay

**Q.** How did the tyrosine autophosphorylation of REK7 (immunoprecipitation with anti-REK7, anti-phosphotyrosine blot) turn out when “soluble AL-1 (purified from BT20 conditioned medium) (ligand)” was run?
**A.** Its tyrosine autophosphorylation of REK7 (immunoprecipitation with anti-REK7, anti-phosphotyrosine blot) is 2 fold.
